Molecular target: the molecule itself
Assay: native gel or EMSA

B1: wild-type D-amino acid oxidase from Schizosaccharomyces pombe (enzyme, UniProt Q9Y7N4 1-348, looked up)
chain: MTKENKPRDIVIVGAGVIGLTTAWILSDLGLAPRIKVIAKYTPEDRSVEYTSPWAGANFCSISATDDNALRWDKITYHRFAYLAKTRPEAGIRFADLRELWEYEPKHDKIRSWNTYVRDFKVIPEKDLPGECIYGHKATTFLINAPHYLNYMYKLLIEAGVEFEKKELSHIKETVEETPEASVVFNCTGLWASKLGGVEDPDVYPTRGHVVLVKAPHVTETRILNGKNSDTYIIPRPLNGGVICGGFMQPGNWDREIHPEDTLDILKRTSALMPELFHGKGPEGAEIIQECVGFRPSRKGGARVELDVVPGTSVPLVHDYGASGTGYQAGYGMALDSVMLALPKIKLA
- binding result: binds

Source: doi:10.1101/2025.03.23.644798 (bioRxiv, 2025)
